Reference: publication PMC5575267, “A novel function of cIAP1 as a mediator of CHIP-driven eIF4E regulation” (Scientific Reports, 2017)

B1: GST-CHIP WT (natural protein, UniProt Q9UNE7 1-303, looked up)
chain: MKGKEEKEGGARLGAGGGSPEKSPSAQELKEQGNRLFVGRKYPEAAACYGRAITRNPLVAVYYTNRALCYLKMQQHEQALADCRRALELDGQSVKAHFFLGQCQLEMESYDEAIANLQRAYSLAKEQRLNFGDDIPSALRIAKKKRWNSIEERRIHQESELHSYLSRLIAAERERELEECQRNHEGDEDDSHVRAQQACIEAKHDKYMADMDELFSQVDEKRKKRDIPDYLCGKISFELMREPCITPSGITYDRKDIEEHLQRVGHFDPVTRSPLTQEQLIPNLAMKEVIDAFISENGWVEDY
notes: source: bacteria, purified (cloned into pGEX4T-1)
B2: CHIP WT-6His (natural protein, UniProt Q9UNE7 1-303, looked up)
chain: MKGKEEKEGGARLGAGGGSPEKSPSAQELKEQGNRLFVGRKYPEAAACYGRAITRNPLVAVYYTNRALCYLKMQQHEQALADCRRALELDGQSVKAHFFLGQCQLEMESYDEAIANLQRAYSLAKEQRLNFGDDIPSALRIAKKKRWNSIEERRIHQESELHSYLSRLIAAERERELEECQRNHEGDEDDSHVRAQQACIEAKHDKYMADMDELFSQVDEKRKKRDIPDYLCGKISFELMREPCITPSGITYDRKDIEEHLQRVGHFDPVTRSPLTQEQLIPNLAMKEVIDAFISENGWVEDY
notes: also called CHIP-6His (WT); source: bacteria, purified (cloned into pET 23a)
B3: CHIP K30A-6His (natural protein, UniProt Q9UNE7 1-303, looked up)
chain: MKGKEEKEGGARLGAGGGSPEKSPSAQELAEQGNRLFVGRKYPEAAACYGRAITRNPLVAVYYTNRALCYLKMQQHEQALADCRRALELDGQSVKAHFFLGQCQLEMESYDEAIANLQRAYSLAKEQRLNFGDDIPSALRIAKKKRWNSIEERRIHQESELHSYLSRLIAAERERELEECQRNHEGDEDDSHVRAQQACIEAKHDKYMADMDELFSQVDEKRKKRDIPDYLCGKISFELMREPCITPSGITYDRKDIEEHLQRVGHFDPVTRSPLTQEQLIPNLAMKEVIDAFISENGWVEDY
notes: also called CHIP-6His (K30A); source: bacteria, purified (cloned into pET 23a)

Experiments:
[1] = target: T1, GST-cIAP1 (human, UniProt Q13490 1-618); assay: pull-down; His-tag pull-down: eIF4E-6His beads pre-incubated with GST-cIAP1 (also in increasing amounts), then incubated with GST-CHIP or GST alone; WB with anti-GST antibody; settings: both partners purified
T1 construct: also called GST-cIAP1 beads; source: bacteria, purified (cloned into pGEX4T-1)
T1 sequence (Q13490 whole entry): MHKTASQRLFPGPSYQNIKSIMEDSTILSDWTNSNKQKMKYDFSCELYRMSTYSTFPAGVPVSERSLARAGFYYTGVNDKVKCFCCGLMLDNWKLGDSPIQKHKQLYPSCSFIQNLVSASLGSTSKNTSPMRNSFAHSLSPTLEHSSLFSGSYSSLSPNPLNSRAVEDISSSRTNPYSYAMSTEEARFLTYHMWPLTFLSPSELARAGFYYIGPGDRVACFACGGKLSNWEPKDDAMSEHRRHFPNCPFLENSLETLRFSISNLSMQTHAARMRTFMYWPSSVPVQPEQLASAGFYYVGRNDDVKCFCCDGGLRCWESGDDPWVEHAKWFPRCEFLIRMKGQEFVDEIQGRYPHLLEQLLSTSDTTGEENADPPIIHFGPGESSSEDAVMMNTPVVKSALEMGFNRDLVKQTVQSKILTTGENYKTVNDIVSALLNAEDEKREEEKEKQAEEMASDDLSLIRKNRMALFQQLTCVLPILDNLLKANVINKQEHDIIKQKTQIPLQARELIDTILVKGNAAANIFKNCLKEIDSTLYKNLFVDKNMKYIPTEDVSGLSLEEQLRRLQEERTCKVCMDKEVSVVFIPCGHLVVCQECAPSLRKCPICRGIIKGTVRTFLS

[2] = target: T1, GST-cIAP1; assay: pull-down; GST pull-down: GST or GST fusion protein on glutathione beads incubated with 6His-tagged protein in 100 mM Tris pH 8.0, 100 mM NaCl, 2 mM EDTA, 5% glycerol, 2 h at 4 °C; WB with anti-His antibody; settings: both partners purified

Binder | binding result [1] | binding result [2]
B1 | binds | 
B2 |  | binds
B3 |  | binds
